For data set [1], the target named is T1, Escherichia coli MG1655 YqhD, native (wild type), SEQ ID NO: 56 (Escherichia coli, UniProt Q46856).
T1 construct: made in house; host or cells: E. coli MG1655 ΔyqhD::Km carrying pTRC99A-yqhD
T1 sequence (Q46856 1-387): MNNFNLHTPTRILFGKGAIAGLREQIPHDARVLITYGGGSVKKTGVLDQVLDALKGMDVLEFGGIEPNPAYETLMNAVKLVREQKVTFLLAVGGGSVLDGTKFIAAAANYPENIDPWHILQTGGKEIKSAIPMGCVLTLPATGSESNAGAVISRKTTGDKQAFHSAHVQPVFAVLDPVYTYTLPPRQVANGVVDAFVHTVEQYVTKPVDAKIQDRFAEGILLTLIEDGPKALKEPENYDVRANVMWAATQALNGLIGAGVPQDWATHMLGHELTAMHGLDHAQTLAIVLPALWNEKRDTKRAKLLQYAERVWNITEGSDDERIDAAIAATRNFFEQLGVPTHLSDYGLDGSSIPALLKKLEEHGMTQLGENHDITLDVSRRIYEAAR
The data set is described as follows: inhibition by NADP+, native YqhD. The format is biochemical, E. coli. The procedure:
(§1) Methylglyoxal reductase activity was assayed by measuring the initial rate of NADPH oxidation with a spectrophotometer at a wavelength of 340 nm and at a constant temperature of 37° C. The reaction mixture using methylglyoxal as substrate was carried out in 20 mM Hepes pH 7.5, 0.1 mM Zinc sulphate, 0.2 mM NADPH, 0.6 μg of purified enzyme in a final volume of 1 ml. The reaction mixture was incubated for 5 min at 37° C. and then the reaction was initiated by the addition of the substrate methylglyoxal at a final concentration of 10 mM. Control assay (blank), lacking the substrate was run in parallel and the value measured for the control was subtracted to the value measured for the assay to take into account non-specific oxidation of NADPH.
(§2) The NADP+ inhibition constant for three purified enzymes (yqhD, yqhD*(G149E) and yqhD*(G149S A286T)) were determined in the conditions described for the activity assay, excepted for the concentration of methylglyoxal that was increased to 20 mM. […] Five concentrations of the inhibitor NADP+ were used (0-0.05-0.1-0.2-0.5 mM) and the kinetics were recorded for each condition of inhibition. The NADP+ inhibition constant (Ki) of each protein was determined with the module enzyme kinetic from the software Sigma Plot (Systat Software Inc, San Jose, Calif.). […]

The target in data set [2] is T2, E. coli YqhD variant YqhD*(G149S A286T) (Escherichia coli, UniProt Q46856, A286T/G149S).
T2 construct: made in house; host or cells: E. coli MG1655 ΔyqhD::Km carrying pTRC99A-yqhD*(G149S)(A286T)
T2 sequence (Q46856 1-387 G149S/A286T): T1 sequence (Q46856 1-387) with G149S, A286T
The data set is described as follows: inhibition by NADP+, YqhD*(G149S A286T). The format is biochemical. The method, then: as §1, §2

For data set [3], the target named is T3, E. coli YqhD variant YqhD*(G149E) (Escherichia coli, UniProt Q46856, G149E).
T3 construct: made in house; host or cells: E. coli MG1655 ΔyqhD::Km carrying pTRC99A-yqhD*(G149E)
T3 sequence (Q46856 1-387 G149E): T1 sequence (Q46856 1-387) with G149E
The data set is described as follows: inhibition by NADP+, YqhD*(G149E). It counts as biochemical. The procedure: as §1, §2

The test system of data set [4] is YqhD single mutant Q202A. To be noted: versus parent YqhD, Li et al, 2008; cited from earlier work.
The test system of data set [5] is YqhD double mutant D99Q N147H. The following applies: versus parent YqhD, Li et al, 2008; cited from earlier work.
For data set [6], the system named is YqhD (purified). The following applies: furfural reductase study, Miller et al (2009); read-out: Km value for NADPH; cited from earlier work.
Data set [7] in a line: Methylglyoxal reductase activity assay, kinetics of purified YqhD enzymes toward methylglyoxal. The format is biochemical, E. coli. The following applies: for Kinetic parameters (Km, kcat, kcat/Km) compared to the native protein / Specific activity compared to that of YqhD: in words. The method, then: as §1
(§3) One unit of enzyme activity was defined as the amount of enzyme that consumed 1 μmol substrate per minute under the conditions of the assay. Specific enzyme activity was expressed as units per mg of protein.
Kinetic constants (Km, kcat and kcat/Km) for the four purified enzymes (yqhD, yqhD*(G149E), yqhD*(G149S) and yqhD*(G149S A286T)) toward methylglyoxal were determined using the activity assay previously described. In this case the reaction was started by addition of the purified enzyme. Seven methylglyoxal concentrations between 1.3 mM and 30 mM were analysed for each enzyme. For all kinetics, initial velocity was determined in triplicate for all substrate concentrations.
Kinetic constants (Km and Vmax) of each protein were determined with the module enzyme kinetics from the software Sigma Plot (Systat Software Inc, San Jose, Calif.). […] The different kinetic parameters of four YqhD enzymes were compiled in Table 6.

Data set [8] is described as follows: Methylglyoxal reductase activity assay, kinetics of purified YqhD enzymes toward co-factor NADPH. It counts as biochemical, E. coli. The procedure:
as §1, §3
Kinetic constants (Km, kcat and kcat/Km) for the four purified enzymes (yqhD, yqhD*(G149E), yqhD*(G149S) and yqhD*(G149S A286T)) toward methylglyoxal were determined using the activity assay previously described. In this case the reaction was started by addition of the purified enzyme. Nine NADPH concentrations between 6 μM and 300 μM were analysed for each enzyme. For all kinetics, initial velocity was determined in triplicate for all co-factor concentrations.
Kinetic constants (Km and Vmax) of each protein were determined with the module enzyme kinetics from the software Sigma Plot (Systat Software Inc, San Jose, Calif.). […] The different kinetic parameters of four YqhD enzymes were compiled in Table 7.

Substrate in data set [9]: CC(=O)C=O
The data set is described as follows: purified protein, by the assay type. The following applies: other: methylglyoxal 1.3-30 mM, 0.2 mM NADPH, pH 7.5, 37° C.

Substrate in data set [10]: NC(=O)C1=CN([C@@H]2O[C@H](COP(=O)(O)OP(=O)(O)OC[C@H]3O[C@@H](n4cnc5c(N)ncnc54)[C@H](OP(=O)(O)O)[C@@H]3O)[C@@H](O)[C@H]2O)C=CC1
The data set can be described thus: purified protein, by the assay type. The following applies: other: NADPH 6-300 μM, 10 mM methylglyoxal, pH 7.5, 37° C.

Data set [11] can be described thus: Inhibition of the YqhD enzymes by NADP+ (competitive inhibition model). It counts as biochemical, E. coli. To be noted: NADP+ inhibition experiment, 20 mM methylglyoxal. The method, then: as §1
The NADP+ inhibition constant for three purified enzymes (yqhD, yqhD*(G149E) and yqhD*(G149S A286T)) were determined in the conditions described for the activity assay, excepted for the concentration of methylglyoxal that was increased to 20 mM. Enzyme kinetics with regards to NADPH were realised with increasing concentration of NADPH between 50 and 200 μM. Five concentrations of the inhibitor NADP+ were used (0-0.05-0.1-0.2-0.5 mM) and the kinetics were recorded for each condition of inhibition. The NADP+ inhibition constant (Ki) of each protein was determined with the module enzyme kinetic from the software Sigma Plot (Systat Software Inc, San Jose, Calif.). A model of competitive inhibition was fitted by the software.

Substitutions are numbered along the chain they refer to. In names and notes the source's numbering stands. Several values for one entry are separate records, joined by “and”; a condition that tells them apart may be missing. Identical values can stand only once.

On to `NC(=O)c1ccc[n+]([C@@H]2O[C@H](COP(=O)([O-])OP(=O)(O)OC[C@H]3O[C@@H](n4cnc5c(N)ncnc54)[C@H](OP(=O)(O)O)[C@@H]3O)[C@@H](O)[C@H]2O)c1` [NADP+], for which the inhibitory constant (Ki) – broadly, a dissociation constant, usually derived from enzyme kinetics or from competition with a known ligand – in data set [1] worked out at 68 µM; in data set [2] it was 16 ± 2.5 µM; in [3] it was 28 ± 5 µM.

In the case of `O=CCCO` [3-HPA, 3-hydroxypropionaldehyde], the “affinity (Km) for 3-HPA” value in data set [4] and in data set [5] was “improved affinity (lower Km)” in each case. Moreover, the “catalytic efficiency (Kcat/Km) for 3-HPA” value in data set [4] and in data set [5] was “improved catalytic efficiency” each time.

In the case of `NC(=O)C1=CN([C@@H]2O[C@H](COP(=O)(O)OP(=O)(O)OC[C@H]3O[C@@H](n4cnc5c(N)ncnc54)[C@H](OP(=O)(O)O)[C@@H]3O)[C@@H](O)[C@H]2O)C=CC1` [NADPH], the Km – broadly, the concentration of substrate that gives half-maximal velocity – in data set [6] is 8 µM.

B1: E. coli YqhD variant YqhD*(G149S A286T) (Escherichia coli K-12; A286T/G149S) (protein)
chain: T1 sequence (Q46856 1-387) with G149S, A286T
With B1, in data set [7], the Specific activity is 2.69 ± 0.10 µmol/min/mg; the “Specific activity as share of the specific activity of YqhD” value worked out at 69%; the “Kinetic parameters (Km, kcat, kcat/Km) compared to the native protein” value is on record as “identical to the native protein”. In addition, the Specific activity in data set [8] amounted to 3.17 ± 0.02 µmol/min/mg. In data set [9], the Km was found to be 3280 ± 380 µM; the kcat (usually the maximal rate divided by the concentration of active sites) stood at 1.89 ± 0.07 s⁻¹; the kcat/Km (in general, the turnover number divided by the Michaelis constant) turned out to be 577 ± 88 M⁻¹ s⁻¹. In addition, in data set [10], the Km stood at 20 ± 2.2 µM; the kcat came out at 2.2 ± 0.1 s⁻¹; the kcat/Km is 1.22 E+05 M−1s−1 and 1.13E+05 ± 1.3E+04 M−1s−1. For the same molecule, the Specific activity in data set [11] stood at 5.25 ± 0.183 µmol/min/mg.

B2: Escherichia coli MG1655 YqhD, native (wild type), SEQ ID NO: 56 (Escherichia coli K-12) (protein)
chain: T1 sequence (Q46856 1-387)
Take B2: the Specific activity in data set [7] came to 3.91 ± 0.11 µmol/min/mg; in [8], 2.99 ± 0.1 µmol/min/mg; in [11], 3.63 ± 0.284 µmol/min/mg. The values for the Km in data set [9] and in [10] were 4810 ± 410 µM and 32 ± 4.2 µM, respectively. Also, the kcat was 2.74 ± 0.08 s⁻¹ in data set [9] and 2.1 ± 0.1 s⁻¹ in [10]. Moreover, the values for the specificity constant (kcat/Km) in [9] and in data set [10] were 570 ± 65 M⁻¹ s⁻¹ and 66000 ± 11000 M⁻¹ s⁻¹, respectively.

B3: E. coli YqhD variant YqhD*(G149S) (Escherichia coli K-12; G149S) (protein)
chain: T1 sequence (Q46856 1-387) with G149S
As to B3, in data set [7], the Specific activity is 3.80 ± 0.12 µmol/min/mg; the “Kinetic parameters (Km, kcat, kcat/Km) compared to the native protein” value is listed as “identical to the native protein”; the “Specific activity compared to that of YqhD” value was “similar”. In addition, the Specific activity in data set [8] worked out at 3.78 ± 0.15 µmol/min/mg. In data set [9], the Michaelis constant (Km) stood at 3370 ± 340 µM, the kcat was 2.67 ± 0.09 s⁻¹ and the kcat/Km came to 792 ± 105 M⁻¹ s⁻¹. In addition, in data set [10], the Km turned out to be 22 ± 3.7 µM, the kcat was 2.7 ± 0.1 s⁻¹ and the kcat/Km was found to be 122000 ± 25000 M⁻¹ s⁻¹.

B4: E. coli YqhD variant YqhD*(G149E) (Escherichia coli K-12; G149E) (protein)
chain: T1 sequence (Q46856 1-387) with G149E
In the case of B4, in data set [7], the Specific activity was found to be 7.65 ± 0.31 µmol/min/mg and the “Specific activity compared to that of YqhD” value is “almost doubled”. In data set [8], this molecule came in with a Specific activity of 4.86 ± 0.08 µmol/min/mg. In data set [9], the Michaelis constant (Km) came out at 7800 ± 790 µM, the kcat is 5.38 ± 0.21 s⁻¹ and the kcat/Km stood at 689 ± 98 M⁻¹ s⁻¹. Besides, in data set [10], the Km is 28 ± 1.8 µM, the kcat amounted to 3.4 ± 0.1 s⁻¹ and the specificity constant (kcat/Km) was determined as 122000 ± 9800 M⁻¹ s⁻¹. The Specific activity in data set [11] worked out at 5.53 ± 0.292 µmol/min/mg.

Values taken from US8969053B2, “Mutant YqhD enzyme for the production of a biochemical by fermentation” (Metabolic Explorer, priority 2009, dated 2015).
